{"source": "paper PMC3551895", "molecular_target": "vibrillin βγ-crystallin domain (Vibrio cholerae)", "experiment": "SEC", "data": [{"substance": "vibrillin βγ-crystallin domain (domain or fragment)", "values": [{"measurement": "stoichiometry N", "result": 6}]}]}
